Laboratory results published in the supplement of paper PMC10126150.
± gives the standard deviation of the averaged measurements.

tested on: ATP; assay: switch fluorescence ratio, 500 uM ATP over buffer (Cy3 cluster intensity, sum of 5 cycles each) (fold (ratio)); higher = stronger signal-on switching upon ATP binding; sequences stand for … in TCGTCGGCAGCGTCAGATGTGTATAAGAGACAGTTTTTTTTTTTTTTTTTTTTTTTTT…TC; details: aptamer strand: ATP DNA aptamer (quencher-CACCTGGGGGAGTATTGCGGAGGAAGG + anchor), 100 nM annealed; ATP concentration: 500 uM
Summary of the method: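 The fluorescence ratio divides summed target-cycle Cy3 intensity by summed buffer-cycle Cy3 intensity for each cluster and is averaged per switch-domain sequence. Cy3-labelled switching-strand clusters on a modified Illumina MiSeq flow-cell were annealed to 100 nM quencher-labelled ATP aptamer, then imaged in selection buffer and again after 15 min with 500 uM ATP at 22 °C. Five such cycles were run, with NaOH stripping and re-annealing between them, and clusters outside 100-1000 RFU were excluded.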
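Also: ATP exposure 15 min at 22 °C before imaging.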

CAGGGTTCCG and CAGGTAAGGC are within error of each other in switch fluorescence ratio: 1.17 ± 0.28 for the first, 1.04 ± 0.033 for the second.

Going from CAGGTAAGGT to CAGGTACATA, the switch fluorescence ratio rises from 1.014 ± 0.0035 to 1.055 ± 0.0086.

CAGGTAGGTT and CAGGTATAAG are within error of each other in switch fluorescence ratio: 1.02 ± 0.068 for the first, 1.01 ± 0.061 for the second.

Compared with CAGGTATTAC, CAGGTCCAGT is lower in switch fluorescence ratio: 1.11 ± 0.026 for the first, 0.993 ± 0.02 for the second.

Compared with CAGGTCTTGG, CAGGTGCGTT is higher in switch fluorescence ratio: 1.01 ± 0.03 for the first, 1.58 ± 0.028 for the second.

First: CAGGTGGTGG
Second: CAGGTGTCTG
The switch fluorescence ratio of the first is lower: 1.02 ± 0.02 for the first, 1.13 ± 0.032 for the second.

CAGGTTCTAC and CAGGTTGGTT are within error of each other in switch fluorescence ratio: 1.015 ± 0.0032 for the first, 1 ± 0.027 for the second.

CAGGTTTGTG and CAGGTTTTTG are within error of each other in switch fluorescence ratio: 1.01 ± 0.018 for the first, 0.983 ± 0.028 for the second.

CAGTAAAAAG and CAGTAAGATC are the same in switch fluorescence ratio: 1.03 ± 0.025 for the first, 1.026 ± 0.0056 for the second.

Compared with CAGTACTCTT, CAGTAGGCAG is lower in switch fluorescence ratio: 1.01 ± 0.03 for the first, 0.95 ± 0.016 for the second.

First: CAGTAGTTGC
Second: CAGTATCGCG
The switch fluorescence ratio of the first is higher: 1.091 ± 0.0086 for the first, 0.989 ± 0.005 for the second.

CAGTATGGGG and CAGTATGTTT are within error of each other in switch fluorescence ratio: 0.9664 ± 0.0013 for the first, 0.974 ± 0.044 for the second.

CAGTCATTTT and CAGTCCCACG are within error of each other in switch fluorescence ratio: 0.984 ± 0.031 for the first, 1.021 ± 0.0053 for the second.

CAGTCCGTTT and CAGTCGGTTT are within error of each other in switch fluorescence ratio: 1.02 ± 0.012 for the first, 1.013 ± 0.0088 for the second.

CAGTCGTCCT and CAGTCTAAGA are the same in switch fluorescence ratio: 1.028 ± 0.0019 for the first, 1.03 ± 0.056 for the second.

CAGTCTAAGT and CAGTCTTCTT are the same in switch fluorescence ratio: 1.02 ± 0.014 for the first, 1.02 ± 0.026 for the second.

CAGTCTTTTT and CAGTGACTGT are within error of each other in switch fluorescence ratio: 1.03 ± 0.022 for the first, 0.98 ± 0.034 for the second.

CAGTGAGAAC and CAGTGATAAA are the same in switch fluorescence ratio: 1.01 ± 0.025 for the first, 1.008 ± 0.0066 for the second.

Going from CAGTGATGGA to CAGTGATTTA, the switch fluorescence ratio falls from 1.007 ± 0.0046 to 0.981 ± 0.019.

CAGTGCATTG and CAGTGCGGCT are the same in switch fluorescence ratio: 1.01 ± 0.023 for the first, 1.007 ± 0.0046 for the second.

CAGTGGAGCG and CAGTGGCTTC are within error of each other in switch fluorescence ratio: 0.964 ± 0.058 for the first, 1.01 ± 0.023 for the second.

First: CAGTGGGGTA
Second: CAGTGTGAAT
The switch fluorescence ratio of the first is lower: 0.966 ± 0.012 for the first, 1 ± 0.021 for the second.

CAGTGTTA and CAGTGTTGGG are within error of each other in switch fluorescence ratio: 0.985 ± 0.064 for the first, 1.002 ± 0.0016 for the second.

CAGTTAAAAA and CAGTTAGATT are within error of each other in switch fluorescence ratio: 1.03 ± 0.012 for the first, 1.01 ± 0.028 for the second.

CAGTTATCGT and CAGTTATGGC are within error of each other in switch fluorescence ratio: 0.986 ± 0.016 for the first, 0.999 ± 0.026 for the second.

CAGTTCAGTA and CAGTTCATCG are within error of each other in switch fluorescence ratio: 0.992 ± 0.03 for the first, 1.03 ± 0.025 for the second.

CAGTTCTGGG and CAGTTCTGTA are within error of each other in switch fluorescence ratio: 0.9872 ± 0.0097 for the first, 1.01 ± 0.038 for the second.

CAGTTGCGAG and CAGTTGCTCA are within error of each other in switch fluorescence ratio: 0.983 ± 0.042 for the first, 1.012 ± 0.0097 for the second.

CAGTTGGGAT and CAGTTGGTTT are within error of each other in switch fluorescence ratio: 0.969 ± 0.026 for the first, 0.97 ± 0.02 for the second.

CAGTTTACCG and CAGTTTCGTT are within error of each other in switch fluorescence ratio: 1.03 ± 0.019 for the first, 1.02 ± 0.037 for the second.

CAGTTTGTTA and CAGTTTTGAT are within error of each other in switch fluorescence ratio: 0.994 ± 0.036 for the first, 0.998 ± 0.019 for the second.

First: CAGTTTTGGG
Second: CATAAAGTAG
The switch fluorescence ratio of the first is lower: 0.9713 ± 0.0016 for the first, 1.02 ± 0.014 for the second.

CATAAATCAA and CATAACATAG are within error of each other in switch fluorescence ratio: 0.9925 ± 0.006 for the first, 0.995 ± 0.012 for the second.

First: CATAACGGGG
Second: CATAAGGGTG
The switch fluorescence ratio of the first is lower: 0.957 ± 0.04 for the first, 1.09 ± 0.038 for the second.

Going from CATAAGTGGG to CATAATCAGG, the switch fluorescence ratio rises from 0.973 ± 0.03 to 1.04 ± 0.03.

CATAATCTAG and CATACAGATC are within error of each other in switch fluorescence ratio: 1.03 ± 0.013 for the first, 1.06 ± 0.031 for the second.

First: CATACATACG
Second: CATACGGTTT
The switch fluorescence ratio of the first is higher: 1.42 ± 0.056 for the first, 1.05 ± 0.024 for the second.

CATACGTCTG and CATACTCAGA are within error of each other in switch fluorescence ratio: 1.04 ± 0.017 for the first, 1 ± 0.045 for the second.

CATAGAGGGT and CATAGAGTGT are within error of each other in switch fluorescence ratio: 0.951 ± 0.03 for the first, 1 ± 0.021 for the second.

First: CATAGATTTT
Second: CATAGCTTTT
The switch fluorescence ratio of the first is lower: 0.98896 ± 0.00042 for the first, 1.01 ± 0.012 for the second.

CATAGGAGAC and CATAGGGAGA are within error of each other in switch fluorescence ratio: 1 ± 0.017 for the first, 1.006 ± 0.0042 for the second.

Compared with CATAGGGGAG, CATAGGTCTA is lower in switch fluorescence ratio: 1.042 ± 0.01 for the first, 0.996 ± 0.019 for the second.

CATAGTGATG and CATATATCAT are within error of each other in switch fluorescence ratio: 0.986 ± 0.026 for the first, 1.008 ± 0.0095 for the second.

CATATATTT and CATATCATGG are within error of each other in switch fluorescence ratio: 0.975 ± 0.015 for the first, 0.988 ± 0.037 for the second.

CATATGAGGG and CATATGCGTA are within error of each other in switch fluorescence ratio: 0.991 ± 0.07 for the first, 0.9857 ± 0.0015 for the second.

CATATGTGCG and CATATTCCTA are within error of each other in switch fluorescence ratio: 0.992 ± 0.023 for the first, 0.999 ± 0.035 for the second.

CATATTCGGC and CATATTGGAT are within error of each other in switch fluorescence ratio: 0.988 ± 0.061 for the first, 1.02 ± 0.036 for the second.

CATATTTA and CATATTTCGC are within error of each other in switch fluorescence ratio: 0.992 ± 0.02 for the first, 1.03 ± 0.029 for the second.

CATATTTGAC and CATCACATGT are within error of each other in switch fluorescence ratio: 1.04 ± 0.074 for the first, 1 ± 0.018 for the second.

Going from CATCATGTGT to CATCCGGCGG, the switch fluorescence ratio rises from 0.9714 ± 0.0043 to 1.17 ± 0.038.
